Results reported in publication PMC7534926 (The Journal of Cell Biology, 2020).
Values belong to the molecule of their own block, whether it stands above or below them. No end group written: not given here. *: point of attachment. Biotin = O=C1N[C@H]2[C@H](CS[C@H]2CCCCC(=O)*)N1

Legend:
Pdlim5 = Pdlim5 (UniProt Q62920); assay: proximity ligation assay; settings: reference: no treatment; sites S1242
Magi1 = Magi1 (UniProt Q4L1J4); assay: proximity ligation assay; settings: reference: no treatment; sites S1242
Magi1, sequence (Q4L1J4 whole entry, looked up, the tested form may be a part): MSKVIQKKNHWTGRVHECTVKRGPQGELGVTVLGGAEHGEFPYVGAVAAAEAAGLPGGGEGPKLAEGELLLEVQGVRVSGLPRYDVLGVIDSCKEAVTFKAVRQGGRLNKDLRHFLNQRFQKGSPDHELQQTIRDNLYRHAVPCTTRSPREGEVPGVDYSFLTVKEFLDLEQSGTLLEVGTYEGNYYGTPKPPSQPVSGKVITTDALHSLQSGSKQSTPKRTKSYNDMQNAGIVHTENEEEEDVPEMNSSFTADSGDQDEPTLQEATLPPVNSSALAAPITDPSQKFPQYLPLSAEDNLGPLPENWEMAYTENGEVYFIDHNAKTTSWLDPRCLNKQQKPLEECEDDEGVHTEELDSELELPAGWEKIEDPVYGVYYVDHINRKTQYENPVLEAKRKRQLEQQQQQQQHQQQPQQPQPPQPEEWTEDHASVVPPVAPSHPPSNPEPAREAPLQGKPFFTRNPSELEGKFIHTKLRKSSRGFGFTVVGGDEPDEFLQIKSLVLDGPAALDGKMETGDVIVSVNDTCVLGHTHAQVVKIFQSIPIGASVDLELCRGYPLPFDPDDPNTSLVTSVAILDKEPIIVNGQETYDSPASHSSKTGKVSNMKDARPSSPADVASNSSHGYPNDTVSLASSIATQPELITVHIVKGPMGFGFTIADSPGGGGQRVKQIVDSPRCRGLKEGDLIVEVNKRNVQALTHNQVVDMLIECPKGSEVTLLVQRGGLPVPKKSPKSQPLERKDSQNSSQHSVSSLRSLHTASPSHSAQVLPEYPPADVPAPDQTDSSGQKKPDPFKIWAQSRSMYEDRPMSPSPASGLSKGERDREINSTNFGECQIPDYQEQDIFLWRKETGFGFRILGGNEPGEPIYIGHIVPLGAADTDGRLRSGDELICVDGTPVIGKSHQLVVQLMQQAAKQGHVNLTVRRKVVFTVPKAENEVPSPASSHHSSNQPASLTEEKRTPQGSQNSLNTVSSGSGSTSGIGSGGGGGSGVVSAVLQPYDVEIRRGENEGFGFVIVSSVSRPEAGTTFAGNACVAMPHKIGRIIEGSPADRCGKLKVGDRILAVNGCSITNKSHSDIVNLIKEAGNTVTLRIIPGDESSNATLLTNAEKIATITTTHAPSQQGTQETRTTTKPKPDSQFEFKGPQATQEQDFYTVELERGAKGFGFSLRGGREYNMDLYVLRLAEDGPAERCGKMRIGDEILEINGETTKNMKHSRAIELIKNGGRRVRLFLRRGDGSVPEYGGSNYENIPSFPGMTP

Pdlim5 PDZ domain = Pdlim5 PDZ domain (UniProt Q96HC4); assay: PDZ-domain microarray probed with biotinylated peptide
Erbin PDZ domain = Erbin PDZ domain (UniProt Q96RT1); assay: as above; settings: reference: unphosphorylated peptide; sites S1242,S1245
[1] = target: endogenous delta-catenin of rat hippocampal neurons (rat (endogenous in primary hippocampal neurons)) (UniProt O35116); assay: proximity ligation
endogenous delta-catenin of rat hippocampal neurons (rat (endogenous in primary hippocampal neurons)), sequence (O35116 whole entry, stated change not applied, the tested form may be a part): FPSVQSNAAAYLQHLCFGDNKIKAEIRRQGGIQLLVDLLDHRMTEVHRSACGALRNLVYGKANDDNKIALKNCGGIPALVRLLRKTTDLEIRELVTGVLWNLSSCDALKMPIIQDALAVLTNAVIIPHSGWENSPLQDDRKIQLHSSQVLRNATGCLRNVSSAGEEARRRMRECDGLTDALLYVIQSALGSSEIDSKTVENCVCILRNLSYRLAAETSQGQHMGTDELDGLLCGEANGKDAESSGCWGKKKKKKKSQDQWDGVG

[2] = target: GST fusion of the PDZ domain of Erbin (array) (human, UniProt Q96RT1 1321-1410); assay: peptide or protein array
GST fusion of the PDZ domain of Erbin (array), sequence (Q96RT1 1321-1410): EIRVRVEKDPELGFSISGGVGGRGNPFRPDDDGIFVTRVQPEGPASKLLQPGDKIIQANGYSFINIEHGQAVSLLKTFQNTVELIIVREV

other: PLA puncta per cell (Pdlim5): stronger; reference 20.46 ± 1.41
other: PLA puncta per cell (Magi1): weaker; reference 21.15 ± 7.24
Molecule: delta-catenin 20 µM DHPG, 10 min

binding against the reference (Pdlim5 PDZ domain; reference: pS1242-only peptide, sites S1245): stronger
binding against the reference (Pdlim5 PDZ domain; reference: pS1245-only peptide, sites S1242): stronger
Molecule: delta-catenin C-terminal PDZ-binding motif (from UniProt O35927) pS1242 + pS1245 peptide

Molecule: delta-catenin C-terminal PDZ-binding motif (from UniProt O35927) phosphorylated peptide (doubly phosphorylated probe assumed)
binding against the reference (Erbin PDZ domain): same

PLA puncta per cell (20 µM DHPG, 10 min) [1]: 8.95 puncta/cell
PLA puncta per cell (no treatment) [1]: 21.1 puncta/cell
PLA puncta per neuron (puncta per neuron) [1]: 16
Molecule: endogenous Magi1 of rat hippocampal neurons (from UniProt Q4L1J4 1-1255) (natural protein)

binding result [2]: binds
B1: delta-catenin PDZ-binding motif peptide, De-Phospho (Biotin-TSHYPASPDSWV) (peptide)
peptide: Biotin-TSHYPASPDSWV

PLA puncta per cell (20 µM DHPG, 10 min) [1]: 54.2 puncta/cell
PLA puncta per cell (no treatment) [1]: 20.5 puncta/cell
PLA puncta per neuron (puncta per neuron) [1]: 37.7
B2: endogenous Pdlim5 of rat hippocampal neurons (natural protein)
chain: MSNYNVSLVGPAPWGFRLQGGKDFNMPLTISSLKDGGKASQAHVRIGDVVLSIDGISAQGMTHLEAQNKIKACTGSLNMTLQRASAAAKSEPVAVQKGEPKEVVKPVPITSPAVSKVTSTTNMAYNKVPRPFGSVSSPKVTSIPSPSSAFTPAHAATSSHASPPPVAAVTPPPLSASGLHASANPSAAQCSSPPNTGKPAVHVPRQPTVTSVCSESAQELAEGQRRGSQGDIKQQNGPPRKHIVERNTEFYHIPTHSDASKKRLIEDTEDWRPRTGTTQSRSFRILAQITGTEHLKESENDNAKKANSTPEPSQQSASPLSAAESLESPGSNRPVVAGLRSAAAFKPVGSTSVKSPSWQRPNQAAPSTGRISNSASSSGTGAPMKPAVGPPQPSDQDTLVQRAEHIPAGKRTPMCAHCNQAIRGPFLVALGKSWHPEEFNCAHCKNTMAYIGFVEEKGALYCELCYEKFFAPECGRCQRKILGEVINALKQTWHVSCFVCVACGKPIRNNVFHLEDGEPYCETDYYALFGTICRGCEFPIEAGDMFLEALGSTWHDTCFVCSVCCESLEGQTFFSKKDKPLCKKHAHSVNF
